Data reported in patent US12043658B2, “Conjugate comprising an active MMP-9-binding peptide” (Daiichi Sankyo Company, Limited, priority 2017, dated 2024).

B1: M91005_D1G-Fc-01: N-terminal derivative Fc conjugate: Stag+linker 1, M91005_D1G, C-terminal 6-mer, G4S linker and human IgG1 Fc (protein)
chain: GSGMKETAAAKFERQHMDSPDLGTDDDDKAMADIGSANSGPQFGLFSKYRTPNCRKRGGPSCQMSYNPVCGSDMSTYANECTLCMKIREGGHNIKIIRNGPCGASAAAGGGGSDKTHTCPPCPAPELLGGPSVFLFPPKPKDTLMISRTPEVTCVVVDVSHEPEVKFNWYVDGVEVHNAKTKPREEQYNSTYRVVSVLTVLHQDWLNGKEYCKVSNKALPAPIEKTISKAKGQPREPQVYTLPPSREEMTKNQVSLTCLVGFYPSDIAVEWESNGQPENNYKTTPPVLDSDGSFFLYSKLTVDKSRWQQNVFSCSVMHEALHNHYTQKSLSLSPGK
B2: M91002_G2: C-terminal derivative of M91002: Stag+linker 2 at the N-terminal, C-terminal 2-mer Gly-Gly (protein)
chain: GSGMKETAAAKFERQHMDSPDLGTDDDDKAMAENLYFQGDPQFGLFSKYRTPNCRTGRGPACQMGFQPVCGSDMSTYANECTLCMKIREGGHNIKIIRNGPCGG
B3: M91002_G3: C-terminal derivative of M91002: Stag+linker 2 at the N-terminal, C-terminal 3-mer Gly-Gly-Gly (protein)
chain: GSGMKETAAAKFERQHMDSPDLGTDDDDKAMAENLYFQGDPQFGLFSKYRTPNCRTGRGPACQMGFQPVCGSDMSTYANECTLCMKIREGGHNIKIIRNGPCGGG
B4: M91002_G0: C-terminal derivative of M91002: Stag+linker 2 at the N-terminal, no C-terminal addition (protein)
chain: GSGMKETAAAKFERQHMDSPDLGTDDDDKAMAENLYFQGDPQFGLFSKYRTPNCRTGRGPACQMGFQPVCGSDMSTYANECTLCMKIREGGHNIKIIRNGPC
modifications: linker; binder
notes: C-terminal derivative of M91002: Stag+linker 2 at the N-terminal, no C-terminal addition
B5: wild type SPINK2: Serine Protease Inhibitor Kazal-type 2, human, SEQ ID NO: 1 (FIG. 15) (protein, listed as Homo sapiens)
chain: DPQFGLFSKYRTPNCSQYRLPGCPRHFNPVCGSDMSTYANECTLCMKIREGGHNIKIIRNGPC

Assays:
[1] = biological target: T1, active human MMP-9 enzyme active domain (Homo sapiens, UniProt P14780); test: Size exclusion chromatography binding to active hMMP-9(cat)_His6; design: an enzyme active domain (Phe107-Pro449) and a His tag; made in house; host or cells: FreeStyle 293F; conditions: 25 μM enzyme, 75 μM inhibitor
Experimental: (§1) With M91005 and M91011 prepared in (1-2), active hMMP-9(cat)_His6 prepared in (2-1-4), and hMMP-9(cat)_E402Q_His6 prepared in (11-3), the binding activity was evaluated by size exclusion chromatography. 25 μM active hMMP-9(cat)_His6 or hMMP-9(cat)_E402Q_His6 and 75 μM active MMP-9-binding peptide or hTIMP-1 (in-house preparation) were mixed, and reacted at 4° C. for 1 hour. After the reaction, 10 μl of the reaction solution was analyzed by size exclusion chromatography. The chromatographic conditions were as follows.
(§2) Detection: Absorbance (280 nm)
(§3) When only active hMMP-9(cat)_His6 was analyzed, the peak of active hMMP-9(cat)_His6 was detected at a retention time of 7.0 minutes (FIG. 53(A)). When a mixture reaction solution of active hMMP-9(cat)_His6 and hTIMP-1 or active MMP-9-binding peptides M91005 or M91011 was analyzed, the retention time of the peak of active hMMP-9(cat)_His6 was shifted to the high molecular weight side (FIG. 53(A)). […] When only human MMP-9(cat)_E402Q_His6 was analyzed, the peak of hMMP-9(cat)_E402Q_His6 was detected at a retention time of 7.1 minutes (FIG. 53(B)). When a mixed reaction solution of human MMP-9(cat)_E402Q_His6 and hTIMP-1 was analyzed, the retention time of the peak of hMMP-9(cat)_E402Q_His6 was shifted to the high molecular weight side (FIG. 53(B)). […] In contrast, when a mixture reaction solution of hMMP-9(cat)_E402Q_His6 and the active MMP-9-binding peptide M91005 or M91011 was analyzed, the retention time of the peak of the hMMP-9(cat)_E402Q_His6 was not changed (FIG. 53(B)). It should be noted that when only hTIMP-1 or the active MMP-9-binding peptides M91005, M91011 was analyzed, the peak of hTIMP-1 was detected at a retention time of 7.3 minutes, the peak of the active MMP-9-binding peptide M91005 was detected at a retention time of 8.2 minutes, and the peak of the active MMP-9-binding peptide M91011 was detected at a retention time of 8.1 minutes (FIG. 53(C)).

[2] = biological target: T2, human MMP-9 enzyme active domain E402Q mutant (Homo sapiens, UniProt P14780, E402Q); test: Size exclusion chromatography binding to hMMP-9(cat)_E402Q_His6; conditions: 25 μM enzyme, 75 μM inhibitor
T2 construct: an enzyme active domain E402Q mutant (Phe107-Pro449, E402Q) and a His tag; made in house; host or cells: FreeStyle 293F
Experimental: as §1, §2, §3

[3] = biological target: T3, human MMP-9 (active hMMP-9(cat)_His6) (Homo sapiens, UniProt P14780); test: Human MMP-9 inhibitory activity of active MMP-9-binding peptide derivatives (substrate peptide); assay type: biochemical; conditions: 0.6 nM active hMMP-9(cat)_His6
T3 construct: an enzyme active domain (Phe107-Pro449) and a His tag; made in house; host or cells: FreeStyle 293F
Experimental: The substrate peptide MOCAc-KPLGL-A2pr (Dnp)-AR-NH2 (SEQ ID NO: 30 (FIG. 46)) (PEPTIDE […], INC.; 3226-v) was dissolved in water to 1 mM, and diluted with an assay buffer (50 mM Tris-HCl, 200 mM NaCl, 2 mM CaCl2, pH 7.5) to use at a final concentration of 2.5 to 10 μM. Fifty μl each of the active hMMP-9(cat)_His6 diluted with the assay buffer and the active MMP-9-binding peptide were mixed, and reacted at 37° C. for 1 hour. Then, 100 μl of the substrate diluted with the assay buffer was added, and fluorescence signals (excitation 328 nm/emission 393 nm) were measured with Enspire (PerkinElmer, Inc.). The final concentration of active hMMP-9(cat)_His6 was 0.4 nM, and the final concentration of the active MMP-9-binding peptide was 0.5 to 25 nM. For reactions and measurements, a ProteoSave™ SS96F black plate (Sumitomo Bakelite Co., Ltd.) was used.
According to the method described in (4-1), human MMP-9 inhibitory activity of each of the binding peptides was evaluated with 0.6 nM final concentration of active hMMP-9(cat)_His6 and 0.0015 to 100 nM final concentration of each active MMP-9-binding peptide (FIGS. 11(A), 12(A), and 13(A)).

[4] = biological target: T4, pro human MMP-9 enzyme active domain (Homo sapiens, UniProt P14780); test: ELISA binding to immobilized pro human MMP-9 enzyme active domain; conditions: 1 to 1,000 nM peptide, S-tag detection
T4 construct: a propeptide (Ala20-Arg106), an enzyme active domain (Phe107-Pro449), a FLAG tag; made in house; host or cells: FreeStyle 293F
Experimental: (§4) The biotin-labeled pro-hMMP-9(cat)_His6_FLAG_Avi obtained in (2-1-6) or biotin-labeled active hMMP-9(cat)_FLAG_Avi obtained in (2-1-7) was immobilized on a streptavidin coated 96-well plate (Thermo Fisher Scientific). After blocking with 3% BSA, 1 to 1,000 nM of the binding peptides were added, and reacted at room temperature for 1.5 hours. After washing, goat anti-S-Tag HRP conjugated (Bethyl Laboratories, Inc.) was added, and reacted at room temperature for 1 hour. After washing, substrates of ELISA POD substrate A.B.T.S kit (Nacalai Tesque Inc.) were added, and reacted at room temperature. After adding a reaction stop solution, the absorbance at 405 nm was measured with Enspire (PerkinElmer, Inc.), and MMP-9-binding activity of the active MMP-9-binding peptides was evaluated.

[5] = biological target: T1, active human MMP-9 enzyme active domain; test: ELISA binding to immobilized active human MMP-9 enzyme active domain; conditions: 1 to 1,000 nM peptide, S-tag detection
Experimental: as §4

T3 sequence (P14780 107-449): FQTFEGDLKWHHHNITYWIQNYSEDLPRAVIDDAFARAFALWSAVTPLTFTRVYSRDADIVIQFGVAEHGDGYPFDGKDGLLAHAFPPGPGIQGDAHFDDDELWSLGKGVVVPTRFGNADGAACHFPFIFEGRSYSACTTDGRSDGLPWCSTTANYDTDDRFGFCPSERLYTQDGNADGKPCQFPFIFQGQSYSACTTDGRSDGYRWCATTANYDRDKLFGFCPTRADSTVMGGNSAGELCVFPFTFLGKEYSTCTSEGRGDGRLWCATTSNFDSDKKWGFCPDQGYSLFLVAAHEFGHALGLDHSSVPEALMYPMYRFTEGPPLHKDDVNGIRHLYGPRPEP
T1 sequence (P14780 107-449): as above
T4 sequence (P14780 20-449): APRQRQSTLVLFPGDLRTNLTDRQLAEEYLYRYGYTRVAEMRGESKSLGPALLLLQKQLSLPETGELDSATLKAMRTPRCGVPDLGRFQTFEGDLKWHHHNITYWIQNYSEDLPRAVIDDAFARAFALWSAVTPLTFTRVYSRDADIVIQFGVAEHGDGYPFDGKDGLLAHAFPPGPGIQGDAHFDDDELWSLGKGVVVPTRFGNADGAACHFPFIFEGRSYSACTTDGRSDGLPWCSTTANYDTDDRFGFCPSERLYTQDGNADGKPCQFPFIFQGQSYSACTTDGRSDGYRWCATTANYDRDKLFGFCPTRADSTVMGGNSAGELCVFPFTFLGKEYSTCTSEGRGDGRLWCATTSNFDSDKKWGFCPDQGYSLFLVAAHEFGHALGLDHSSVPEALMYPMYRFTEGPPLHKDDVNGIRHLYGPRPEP
T2 sequence (P14780 107-449 E402Q): as the sequence (P14780 107-449) above, with E296Q counted along it

Molecule | human MMP-9 inhibitory activity IC50 compared with parent [3] | further results
hTIMP-1: hTIMP-1 (in-house preparation) [reference compound] |  | binding to active human MMP-9 enzyme active domain (peak shift) [1]: bind to the active human MMP-9 enzyme active domain; binding to human MMP-9 enzyme active domain E402Q mutant (peak shift) [2]: binds to the human MMP-9 enzyme active domain E402Q mutant
B1 | M91005-Fc-01 and M91005_D1G-Fc-01 are equivalent | 
B2 | equivalent to that of M91002 | 
B3 | equivalent to that of M91002 | 
B4 | equivalent to that of M91002 | 
B5 |  | pro human MMP-9-binding activity [4]: did not bind; active human MMP-9-binding activity (EC50) [5]: did not bind
